Results taken from US20140120095A1.

Assays:
Assay in all cases: cell-based or functional assay
[1] = molecular target: VEGF (used to stimulate HUVEC cells) (UniProt P15692)
[2] = molecular target: DII4-His (C-terminal His-tagged human DII4, amino acid 27-524) (human) (UniProt Q9NR61)
[3] = molecular target: VEGF (UniProt P15692)
VEGF, sequence (P15692 other isoform, or with tags, fused parts or gaps limits assumed): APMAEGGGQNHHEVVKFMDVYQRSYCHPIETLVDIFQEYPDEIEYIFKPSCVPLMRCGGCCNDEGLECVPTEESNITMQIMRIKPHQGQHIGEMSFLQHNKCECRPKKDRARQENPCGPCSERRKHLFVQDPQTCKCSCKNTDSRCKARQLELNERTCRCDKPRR

DII4-His (C-terminal His-tagged human DII4, amino acid 27-524) (human), sequence (Q9NR61 25-522): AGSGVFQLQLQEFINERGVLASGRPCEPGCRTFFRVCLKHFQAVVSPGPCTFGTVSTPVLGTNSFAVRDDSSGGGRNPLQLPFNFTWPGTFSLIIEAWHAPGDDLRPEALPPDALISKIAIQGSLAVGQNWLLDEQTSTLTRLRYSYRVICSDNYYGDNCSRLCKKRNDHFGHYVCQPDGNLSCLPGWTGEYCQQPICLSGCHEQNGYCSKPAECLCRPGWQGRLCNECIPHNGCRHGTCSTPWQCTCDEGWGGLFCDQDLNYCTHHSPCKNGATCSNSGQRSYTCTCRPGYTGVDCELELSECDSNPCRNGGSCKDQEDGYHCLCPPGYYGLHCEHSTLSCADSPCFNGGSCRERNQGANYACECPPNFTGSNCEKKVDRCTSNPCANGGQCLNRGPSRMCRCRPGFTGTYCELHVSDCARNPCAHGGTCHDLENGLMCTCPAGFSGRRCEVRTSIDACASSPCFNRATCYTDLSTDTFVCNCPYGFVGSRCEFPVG
VEGF (used to stimulate HUVEC cells), sequence (P15692 other isoform, or with tags, fused parts or gaps limits assumed): as the sequence (P15692 other isoform, or with tags, fused parts or gaps limits assumed) above

B1: VEGFBII23A06 (VHH, not shown: small tags and cut ends)
VHH: EVQLVESGGGLVQPGDSLKLSCAFSGRTFSSYSMGWFRQAQGKEREFVVAISSGGFIYDAVSLEGRFTISRDNTKNTVYLQTPSLKPEDTAVYYCAASRAYGSSRLRLADTYDYWGQGTQVTVSS
% inhibition, VEGF HUVEC proliferation assay [1]: 73%
IC50, VEGF HUVEC proliferation assay [1]: 4.29 nM

B2: DLLBII129B05 (VHH, not shown: small tags and cut ends)
VHH: EVQLVESGGGLVQAGGSLRLSCAASGRTFSSYAMAWYRQAPGKEREYVAAIRWSGGTAYYADSVQGRFTISRDNAKNTVYLQMNSLKPEDTAVYYCANRAPDTRLAPYEYDHWGQGTQVTVSS
IC50 (nM), DII4-mediated HUVEC proliferation assay, +HSA [2]: 3.52 nM
IC50 (nM), DII4-mediated HUVEC proliferation assay, -HSA [2]: 2.32 nM

B3: VEGFBII23B04 (VHH, not shown: small tags and cut ends)
VHH: EVQLVESGGGLVQTGDSLRLSCEVSGRTFSSYSMGWFRQAQGKEREFVVAISKGGYKYDSVSLEGRFTISKDNAKNTVYLQINSLKPEDTAVYYCASSRAYGSSRLRLADTYEYWGQGTQVTVSS
% inhibition, VEGF HUVEC Erk phosphorylation assay, +HSA [3]: 93%
% inhibition, VEGF HUVEC Erk phosphorylation assay, -HSA [3]: 91%
IC50 (nM), VEGF HUVEC Erk phosphorylation assay, +HSA [3]: 0.6 nM
IC50 (nM), VEGF HUVEC Erk phosphorylation assay, -HSA [3]: 0.69 nM
